Measurements from the Human Domainome abundance scans (Beltran et al. 2025).

B1: Retinoic acid receptor beta, residues 85 to 161; numbered along this chain, P10826 (parent)
chain: YKPCFVCQDKSSGYHYGVSACEGCKGFFRRSIQKNMIYTCHRDKNCVINKVTRNRCQYCRLQKCFEVGMSKESVRND

Variants of: B1
Assay: abundance fitness (aPCA) (normalised: wild type 0, dead -1); higher = more abundant; growth selection in yeast, the domain comes from the species named
Details: Homo sapiens

Abundance fitness: each site, then its substitutions
G13: T -0.053 | V -0.192 | W -0.673 | Y -0.206
Y14: A 0.11 | C -0.119 | E -0.038 | G -0.244 | H 0.113 | I 0.054 | K 0.012 | L 0.006 | N -0.041 | P 0.125 | R -0.203 | S -0.044 | T 0.042 | V 0.092 | W 0.061
H15: A 0.033 | C 0.016 | D 0.03 | E -0.129 | F -0.111 | G -0.25 | I -0.348 | K -0.276 | L -0.097 | M -0.006 | N -0.015 | T -0.046 | V -0.091 | W -0.203 | Y 0.05
Y16: A -0.062 | C -0.134 | D 0.128 | E 0.29 | F 0.035 | G 0.025 | I -0.178 | K -0.295 | L -0.045 | M -0.15 | N -0.08 | P -0.115 | Q -0.027 | S -0.072 | T -0.069 | V -0.062 | W -0.126
G17: A -0.278 | C -0.24 | D -0.246 | E -0.08 | H -0.292 | K -0.138 | L -0.368 | M -0.254 | N -0.091 | P -0.164 | Q -0.311 | R -0.288 | S -0.219 | T -0.242 | V -0.481 | W -0.603 | Y 0.101
V18: A 0.088 | C -0.106 | D -0.637 | E -0.421 | F -0.108 | G -0.22 | H -0.433 | I 0.012 | L -0.353 | M -0.209 | P -0.365 | Q -0.04 | R -0.76 | S -0.165 | T 0.103 | Y -0.29
S19: A 0.011 | C -0.088 | D -0.285 | E 0.017 | F -0.09 | H -0.032 | I 0.066 | K -0.21 | L -0.046 | M -0.003 | N -0.095 | P -0.045 | Q 0.049 | R -0.121 | T 0.02 | V 0.131 | W 0.024 | Y -0.048
A20: C 0.064 | E -0.66 | F -0.077 | G -0.614 | I 0.055 | K -1.08 | L -0.112 | M -0.228 | N -0.491 | P -0.724 | Q -0.355 | R -0.785 | S -0.07 | T -0.065 | V -0.07 | W -0.672 | Y -0.594
C21: A -0.809 | D -0.904 | E -0.575 | F -1.14 | G -0.76 | I -0.89 | K -0.91 | L -0.752 | M -0.751 | N -0.501 | Q -0.93 | R -0.666 | S -0.933 | T -0.98 | V -0.881 | W -0.839 | Y -0.885
E22: A -0.209 | D -0.025 | G -0.325 | I -0.267 | K -0.205 | L -0.186 | M -0.224 | N -0.317 | P -0.324 | Q -0.316 | R -0.663 | S -0.239 | T -0.126 | V -0.203 | W -0.368
G23: A 0.016 | C 0.108 | D 0.228 | E 0.231 | F -0.304 | H -0.114 | I -0.282 | K -0.288 | M -0.227 | N -0.063 | P 0.072 | Q 0.057 | R -0.395 | S 0.114 | T -0.008 | V -0.149
